Laboratory results as given in ChEMBL document CHEMBL4229465, “SIRT4 is the last puzzle of mitochondrial sirtuins” (Bioorg Med Chem, 2018).
Where a SMILES comes first, the peptide text is derived from it. The star is where a group is joined. ξ: configuration not given here. Biotin = O=C1N[C@H]2[C@H](CS[C@H]2CCCCC(=O)*)N1; Lipoyl(6ξ) = O=C(CCCCC1CCSS1)*; X2 = CC(O)(CC(=O)O)CC(=O)*; X1 = CC(C)(CC(=O)*)C(=O)O

How the values were obtained:
[1] = target: T1, NAD-dependent protein lipoamidase sirtuin-4, mitochondrial (Homo sapiens) (UniProt Q9Y6E7); assay: Ratio of Kcat to Km at recombinant SIRT4 (unknown origin)
T1 sequence (whole entry): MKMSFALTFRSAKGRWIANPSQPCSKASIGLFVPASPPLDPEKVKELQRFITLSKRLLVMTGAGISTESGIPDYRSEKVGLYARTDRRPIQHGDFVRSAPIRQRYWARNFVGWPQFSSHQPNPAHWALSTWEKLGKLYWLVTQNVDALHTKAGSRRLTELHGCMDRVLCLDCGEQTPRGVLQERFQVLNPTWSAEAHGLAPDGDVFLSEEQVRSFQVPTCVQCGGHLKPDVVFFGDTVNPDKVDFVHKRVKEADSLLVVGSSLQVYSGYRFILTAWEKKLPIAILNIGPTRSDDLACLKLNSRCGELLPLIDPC

[2] = target: T1, NAD-dependent protein lipoamidase sirtuin-4, mitochondrial (Homo sapiens); assay: Ratio of Kcat to Km at human N-terminal His6-tagged SIRT4 (25 to 314 residues) expressed in Escherichia coli codon plus (DE3)
[3] = target: T2, NAD-dependent protein deacetylase sirtuin-2 (Homo sapiens) (UniProt Q8IXJ6); assay: Ratio of Kcat to Km at human SIRT2 (36 to 356 residues) expressed in Escherichia coli rosetta cells
T2 sequence (whole entry): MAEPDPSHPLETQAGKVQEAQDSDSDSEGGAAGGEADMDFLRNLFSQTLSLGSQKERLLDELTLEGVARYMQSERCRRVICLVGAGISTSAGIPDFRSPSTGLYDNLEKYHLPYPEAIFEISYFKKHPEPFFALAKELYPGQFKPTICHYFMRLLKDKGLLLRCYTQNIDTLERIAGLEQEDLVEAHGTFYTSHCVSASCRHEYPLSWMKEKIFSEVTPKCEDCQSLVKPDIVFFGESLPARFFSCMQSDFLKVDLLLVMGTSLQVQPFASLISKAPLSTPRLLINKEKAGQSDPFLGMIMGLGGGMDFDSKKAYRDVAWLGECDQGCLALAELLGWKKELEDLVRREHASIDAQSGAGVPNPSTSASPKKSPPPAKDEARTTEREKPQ

[4] = substrate: CC(=O)NCCCC[C@H](NC(=O)[C@H](CC(C)C)NC(=O)[C@@H](NC(=O)CN)C(C)C)C(=O)N[C@@H](CCC(=O)O)C(=O)N[C@@H](Cc1ccc(O)cc1)C(=O)NCC(=O)N[C@H](C(=O)O)C(C)C; assay: (§1) Activity at human N-terminal His6-tagged SIRT4 (25 to 314 residues) expressed in Escherichia coli codon plus (DE3)
[5] = substrate: CC(C)C[C@H](NC(=O)[C@@H](NC(=O)CN)C(C)C)C(=O)N[C@@H](CCCCNC(=O)CC(C)(C)C(=O)O)C(=O)N[C@@H](CCC(=O)O)C(=O)N[C@@H](Cc1ccc(O)cc1)C(=O)NCC(=O)N[C@H](C(=O)O)C(C)C; assay: as §1
[6] = substrate: CC(C)C[C@H](NC(=O)[C@@H](NC(=O)CN)C(C)C)C(=O)N[C@@H](CCCCNC(=O)CC(C)(O)CC(=O)O)C(=O)N[C@@H](CCC(=O)O)C(=O)N[C@@H](Cc1ccc(O)cc1)C(=O)NCC(=O)N[C@H](C(=O)O)C(C)C; assay: as §1
[7] = substrate: CC(C)C[C@H](NC(=O)[C@@H](NC(=O)CN)C(C)C)C(=O)N[C@@H](CCCCNC(=O)CCCCC1CCSS1)C(=O)N[C@@H](CCC(=O)O)C(=O)N[C@@H](Cc1ccc(O)cc1)C(=O)NCC(=O)N[C@H](C(=O)O)C(C)C; assay: as §1
[8] = compound: C[C@H](NC(=O)[C@@H](NC(=O)[C@H](CCC(N)=O)NC(=O)[C@@H](N)CCCCN)[C@@H](C)O)C(=O)N[C@@H](CCCNC(=N)N)C(=O)N[C@@H](CCCCNC(=O)CCCC[C@@H]1SC[C@@H]2NC(=O)N[C@@H]21)C(=O)N[C@@H](CO)C(=O)N[C@H](C(=O)NCC(=O)NCC(=O)O)[C@@H](C)O; assay: (§2) Activity at recombinant SIRT4 (unknown origin) in presence of NAD by LC-MS analysis; settings: Homo sapiens
[9] = compound: CC[C@H](C)[C@H](NC(=O)[C@@H](NC(=O)[C@H](C)NC(=O)[C@H](CCCCNC(C)=O)NC(=O)[C@H](CC(=O)O)NC(=O)[C@@H](NC(=O)[C@H](CCC(=O)O)NC(=O)[C@@H](NC(=O)[C@@H](N)CCC(=O)O)[C@@H](C)CC)[C@@H](C)O)[C@@H](C)O)C(=O)NCC(=O)O; assay: as §2; settings: Homo sapiens
[10] = compound: C[C@H](NC(=O)[C@@H](NC(=O)[C@H](CCC(N)=O)NC(=O)[C@@H](N)CCCCN)[C@@H](C)O)C(=O)N[C@@H](CCCNC(=N)N)C(=O)N[C@@H](CCCCNC(=O)CCCCC1CCSS1)C(=O)N[C@@H](CO)C(=O)N[C@H](C(=O)NCC(=O)NCC(=O)O)[C@@H](C)O; assay: as §2; settings: Homo sapiens
[11] = compound: CC[C@H](C)[C@H](NC(=O)[C@@H](NC(=O)[C@H](C)NC(=O)[C@H](CCCCNC(=O)CCCCC1CCSS1)NC(=O)[C@H](CC(=O)O)NC(=O)[C@@H](NC(=O)[C@H](CCC(=O)O)NC(=O)[C@@H](NC(=O)[C@@H](N)CCC(=O)O)[C@@H](C)CC)[C@@H](C)O)[C@@H](C)O)C(=O)NCC(=O)O; assay: as §2; settings: Homo sapiens
[12] = compound: CC(=O)NCCCC[C@H](NC(=O)[C@H](CCCNC(=N)N)NC(=O)[C@H](C)NC(=O)[C@@H](NC(=O)[C@H](CCC(N)=O)NC(=O)[C@@H](N)CCCCN)[C@@H](C)O)C(=O)N[C@@H](CO)C(=O)N[C@H](C(=O)NCC(=O)NCC(=O)O)[C@@H](C)O; assay: as §2; settings: Homo sapiens
[13] = compound: CC[C@H](C)[C@H](NC(=O)[C@H](CC(N)=O)NC(=O)[C@H](CCCCNC(C)=O)NC(=O)[C@H](CO)NC(=O)CNC(=O)[C@H](CC(C)C)NC(=O)[C@H](Cc1ccc(O)cc1)NC(=O)[C@@H](N)CO)C(=O)N[C@@H](CCCCN)C(=O)N[C@@H](C)C(=O)N[C@@H](CO)C(=O)N[C@@H](CCC(=O)O)C(=O)O; assay: as §2; settings: Homo sapiens

With H-SYLGSK(Ac)NIKASE-OH the Ratio [1] was 0.0064 s⁻¹ M⁻¹.

In the case of `CC(C)C[C@H](NC(=O)[C@@H](NC(=O)CN)C(C)C)C(=O)N[C@@H](CCCCNC(=O)CC(C)(C)C(=O)O)C(=O)N[C@@H](CCC(=O)O)C(=O)N[C@@H](Cc1ccc(O)cc1)C(=O)NCC(=O)N[C@H](C(=O)O)C(C)C` (H-GVLK(X1)EYGV-OH), the Ratio [2] is reported as 412 s⁻¹ M⁻¹.

`C[C@H](NC(=O)[C@@H](NC(=O)[C@H](CCC(N)=O)NC(=O)[C@@H](N)CCCCN)[C@@H](C)O)C(=O)N[C@@H](CCCNC(=N)N)C(=O)N[C@@H](CCCCNC(=O)CCCC[C@@H]1SC[C@@H]2NC(=O)N[C@@H]21)C(=O)N[C@@H](CO)C(=O)N[C@H](C(=O)NCC(=O)NCC(=O)O)[C@@H](C)O` (H-KQTARK(Biotin)STGG-OH) showed a Ratio [1] of 0.74 s⁻¹ M⁻¹.

H-KQLATK(Ac)AARKS-OH was tested, and the Ratio [3] was 3130 s⁻¹ M⁻¹.

In the case of `CC[C@H](C)[C@H](NC(=O)[C@@H](NC(=O)[C@H](C)NC(=O)[C@H](CCCCNC(=O)CCCCC1CCSS1)NC(=O)[C@H](CC(=O)O)NC(=O)[C@@H](NC(=O)[C@H](CCC(=O)O)NC(=O)[C@@H](NC(=O)[C@@H](N)CCC(=O)O)[C@@H](C)CC)[C@@H](C)O)[C@@H](C)O)C(=O)NCC(=O)O` (stereo partly drawn) (H-EIETDK(Lipoyl(6ξ))ATIG-OH), the Ratio [1] is reported as 7.65 s⁻¹ M⁻¹.

`C[C@H](NC(=O)[C@@H](NC(=O)[C@H](CCC(N)=O)NC(=O)[C@@H](N)CCCCN)[C@@H](C)O)C(=O)N[C@@H](CCCNC(=N)N)C(=O)N[C@@H](CCCCNC(=O)CCCCC1CCSS1)C(=O)N[C@@H](CO)C(=O)N[C@H](C(=O)NCC(=O)NCC(=O)O)[C@@H](C)O` (stereo partly drawn) (H-KQTARK(Lipoyl(6ξ))STGG-OH) showed a Ratio [1] of 2.3 s⁻¹ M⁻¹.

`CC(C)C[C@H](NC(=O)[C@@H](NC(=O)CN)C(C)C)C(=O)N[C@@H](CCCCNC(=O)CC(C)(O)CC(=O)O)C(=O)N[C@@H](CCC(=O)O)C(=O)N[C@@H](Cc1ccc(O)cc1)C(=O)NCC(=O)N[C@H](C(=O)O)C(C)C` (stereo partly drawn) (H-GVLK(X2)EYGV-OH) showed a Ratio [2] of 546 s⁻¹ M⁻¹.

With H-GVLK(Ac)EYGV-OH the Ratio [2] was 3.7 s⁻¹ M⁻¹.

With H-EIETDK(Ac)ATIG-OH the Ratio [1] was 0.2 s⁻¹ M⁻¹.

`CC(C)C[C@H](NC(=O)[C@@H](NC(=O)CN)C(C)C)C(=O)N[C@@H](CCCCNC(=O)CCCCC1CCSS1)C(=O)N[C@@H](CCC(=O)O)C(=O)N[C@@H](Cc1ccc(O)cc1)C(=O)NCC(=O)N[C@H](C(=O)O)C(C)C` (stereo partly drawn) (H-GVLK(Lipoyl(6ξ))EYGV-OH) showed a Ratio [2] of 170 s⁻¹ M⁻¹.

Molecule H-KQTARK(Ac)STGG-OH has a Ratio [1] of 0.083 s⁻¹ M⁻¹.

B1: NAD-dependent protein lipoamidase sirtuin-4, mitochondrial (Homo sapiens), Q9Y6E7 (protein)
chain: MKMSFALTFRSAKGRWIANPSQPCSKASIGLFVPASPPLDPEKVKELQRFITLSKRLLVMTGAGISTESGIPDYRSEKVGLYARTDRRPIQHGDFVRSAPIRQRYWARNFVGWPQFSSHQPNPAHWALSTWEKLGKLYWLVTQNVDALHTKAGSRRLTELHGCMDRVLCLDCGEQTPRGVLQERFQVLNPTWSAEAHGLAPDGDVFLSEEQVRSFQVPTCVQCGGHLKPDVVFFGDTVNPDKVDFVHKRVKEADSLLVVGSSLQVYSGYRFILTAWEKKLPIAILNIGPTRSDDLACLKLNSRCGELLPLIDPC
With B1 the Km [4] was 2340 µM, the kcat [4] was 0.0087 s⁻¹ and the Km [5] was 17.7 µM. For the same molecule, the kcat [5] was 0.0073 s⁻¹, the Km [6] was 9.7 µM and the kcat [6] was 0.0053 s⁻¹. The Km [7] was 10.1 µM, the kcat [7] was 0.0017 s⁻¹ and the Km [8] was 719 µM. The kcat [8] was 0.0005 s⁻¹, the Km [9] was greater than 2500 µM and the Km [10] was 814 µM. It also gave a kcat [10] of 0.0019 s⁻¹, a Km [11] of 239 µM and a kcat [11] of 0.0018 s⁻¹. For the same molecule, the Km [12] was greater than 2500 µM and the Km [13] was greater than 2500 µM.
